Read-outs that look alike come from different tables or passages of the source.
What was measured:
Test in all cases: TIRF microscopy binding assay
[1] = target: porcine double-stabilized microtubules (dsMTs) (porcine) (UniProt P02550)
[2] = target: porcine double-stabilized microtubules (dsMTs) (porcine) (UniProt P02550); remark: listed apart in the source
[3] = target: AspN-treated double-stabilized microtubules (β-tubulin C-tail removed) (porcine) (UniProt P02550)

| percent reduction of the fluorescence signal (against full-length TTLL11) [1] | percent reduction of the fluorescence signal (against full-length TTLL11) [2] | percent lower fluorescence signal than on intact MTs [3] | Molecule |
| --- | --- | --- | --- |
| 95% | 80% |  | human TTLL11 I594W mutant (from UniProt Q8NHH1 1-710) (enzyme) |
|  | 60% |  | human TTLL11 R601E mutant (from UniProt Q8NHH1 1-710) (enzyme) |
|  |  | 50% | human TTLL11 (tubulin tyrosine ligase-like 11), full length (enzyme, Janelia 549-HALO probe on the HALO tag (in the TIRF assay)) MRRGSSESELAARWEAEAVAAAKAAAKAEAEATAETVAEQVRVDAGAAGEPECKAGEEQPKVLAPAPAQPSAAEEGNTQVLQRPPPTLPPSKPKPVQGLCPHGKPRDKGRSCKRSSGHGSGENGSQRPVTVDSSKARTSLDALKISIRQLKWKEFPFGRRLPCDIYWHGVSFHDNDIFSGQVNKFPGMTEMVRKITLSRAVRTMQNLFPEEYNFYPRSWILPDEFQLFVAQVQMVKDDDPSWKPTFIVKPDGGCQGDGIYLIKDPSDIRLAGTLQSRPAVVQEYICKPLLIDKLKFDIRLYVLLKSLDPLEIYIAKDGLSRFCTEPYQEPTPKNLHRIFMHLTNYSLNIHSGNFIHSDSASTGSKRTFSSILCRLSSKGVDIKKVWSDIISVVIKTVIALTPELKVFYQSDIPTGRPGPTCFQILGFDILLMKNLKPILLEVNANPSMRIEHEHELSPGVFENVPSLVDEEVKVAVIRDTLRLMDPLKKKRENQSQQLEKPFAGKEDALDGELTSAPDCNANPEAHLPSICLKQVFPKYAKQFNYLRLVDRMANLFIRFLGIKGTMKLGPTGFRTFIRSCKLSSSSLSMAAVDILYIDITRRWNSMTLDQRDSGMCLQAFVEAFFFLAQRKFKMLPLHEQVASLIDLCEYHLSLLDEKRLVCGRGVPSGGRPPHRGPPQEPSPSAQPAGDNPPPRTSCANKLSHPRHTLS |
